Experiments:
NRP2/KDR(VEGFR2) = target: T1, NRP2/KDR(VEGFR2) (Homo sapiens, UniProt O60462); test: Split-luciferase receptor dimerization assay, NRP2/KDR with VEGF-A; format: cell-based; conditions: antibody 100 nM; ligand induced dimerization
T1 construct: The complete extracellular domain and transmembrane helices of NRP2a (version 2), NRP2b (version 5); expressed in transfected cells; host or cells: Expi293, transient co-transfection
T1 sequence (O60462 23-859 isoform O60462-3 limits assumed): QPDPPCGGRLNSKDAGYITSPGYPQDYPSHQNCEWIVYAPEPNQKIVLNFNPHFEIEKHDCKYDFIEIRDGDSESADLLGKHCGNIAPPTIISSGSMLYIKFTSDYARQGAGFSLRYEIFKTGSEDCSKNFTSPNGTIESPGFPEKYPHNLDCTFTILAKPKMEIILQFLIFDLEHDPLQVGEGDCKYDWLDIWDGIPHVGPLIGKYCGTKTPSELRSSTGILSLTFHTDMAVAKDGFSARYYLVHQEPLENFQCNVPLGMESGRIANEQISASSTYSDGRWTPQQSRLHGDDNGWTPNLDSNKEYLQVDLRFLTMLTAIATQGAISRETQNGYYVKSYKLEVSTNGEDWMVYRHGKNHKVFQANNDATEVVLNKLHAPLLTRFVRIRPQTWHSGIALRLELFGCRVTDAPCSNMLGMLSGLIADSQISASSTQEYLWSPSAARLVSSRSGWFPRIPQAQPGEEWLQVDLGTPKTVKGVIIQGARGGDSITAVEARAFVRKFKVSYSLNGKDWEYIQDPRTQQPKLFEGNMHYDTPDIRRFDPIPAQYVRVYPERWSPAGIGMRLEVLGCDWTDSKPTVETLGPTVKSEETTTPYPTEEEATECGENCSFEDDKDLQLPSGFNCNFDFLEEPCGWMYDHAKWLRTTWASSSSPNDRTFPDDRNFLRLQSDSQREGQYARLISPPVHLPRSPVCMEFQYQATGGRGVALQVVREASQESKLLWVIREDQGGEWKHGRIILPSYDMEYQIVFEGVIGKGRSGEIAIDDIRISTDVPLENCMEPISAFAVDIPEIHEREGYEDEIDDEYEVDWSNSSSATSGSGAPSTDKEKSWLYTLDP
Description: To further extend the assessment of the biological activity of the anti-NRP2 antibodies, their activity was assessed in a receptor dimerization assay. In brief, vectors encoding a split luciferase pBiT1.1 and pBiT2.1 were obtained from Promega corporation (Madison, Wisconsin). The complete extracellular domain and transmembrane helices of NRP2a (version 2), NRP2b (version 5) (See table N1), FLT4 (VEGFR3), KDR (VEGFR2), and plexin A1 (PLXNA1) were cloned into the vectors and screened for optimal orientation, receptor density, and ligand induced dimerization, following established methods. […] Cells were counted, and 100,000 live cells were plated in a well of a white luminometer plate in Live Cell Imaging Solution (Fisher). Nano-Glo assay substrate (Promega) was added, and the plate was read on a Glomax 96 luminometer at room temperature to establish baseline luminescence. Antibodies were added to the well at 100 nM and the plate was again read to establish a new baseline and monitor the effects of the antibodies on spontaneous receptor dimerization. Depending on the receptor pair, typically 200 nM SEMA3F-p95 (aTyr Pharma), 2 nM VEGF-C(R&D Systems, Minnesota), or 2 nM VEGF165 (R&D Systems, Minnesota) were then added and the plate was again read to measure dimerization of receptors. […]

[1] = test system: neo-lymphangiogenesis of the cornea; test: Corneal alkali-burn injury model of neovascularization (LYVE-1 staining); format: in vivo, mouse; conditions: IP on Day 0, 3, 7 and 10; Day 14; compared to IgG control; p=0.07
Description: Study Design & Treatment Regimen. The study consisted of 40 female C57BL/6 mice separated into four groups. Prior to study, animals were randomized into four groups, 10 mice per group. On Day 0, neovascularization (NV) of the cornea was induced from alkali-burn injury in the eyes of animals under anesthesia. Animals were treated intraperitoneally with control IgG (Group 1), aNRP2-28 (Group 2) and Bevacizumab (Group 3) on post-injury Day 0, 3, 7 and 10. During the in-life phase, animals were monitored with daily clinical observations and weekly body weights. Additionally, ocular assessments of injured eyes were scored and photos taken on post-injury Day 7 and Day 14. All animals were euthanized on Day 14. Injured eyes from all animals were removed and dissected. Whole-mounted corneas were fixed, stained with LYVE-1, and analyzed immunohistochemically to examine the efficacy of Test Articles.

BT549 = test: 3D soft agar colony formation assay, BT549; format: cell-based, human
Description: Anchorage-independent growth is the ability of transformed cells to grow independently of a solid surface, and is a hallmark of carcinogenesis. The soft agar colony formation assay is a well-established method for characterizing this capability in vitro (J Vis Exp. 2014; (92): 51998). Human triple negative breast cancer (TNBC) cell lines MDA-MB-231 (HTB-26™) and BT549 (HTB122™) were obtained from ATCC and employed in this assay.
MDA-MB-231 was cultured in 1×RPMI media containing 10% FBS and 1% P/S. BT549 was cultured in 1×RPMI media containing 10% FBS, 0.023 U/mL insulin and 1% P/S. Cells were recovered and expanded from frozen stocks for 2-3 passages. The NRP2-high population was sorted out on FACS equipment following cell surface staining by a fluorophore-conjugated anti-NRP2 antibody. […] The chemo drug Cisplatin or 5-FU was added at a final concentration of IC30 or 1/2 IC30, based on a preliminary test that determined their inhibition curves on MDA-MB-231 cells, in combination with the antibodies a-NRP2-10v10 or its isotype control hIgG4 at 100 nM. […] After 6 or 9 days of treatment, the soft agar matrix was dissolved and the formed cell colonies were quantified using CyQuant dye diluted in PBS (provided in the Cell Biolab kit), which produced a fluorescence signal proportional to viable cells.

B1: aNRP2-11v7: humanized, affinity matured anti-NRP2 antibody, target domain b2; VH SEQ ID NO: 51, VL SEQ ID NO: 52 (antibody, V domains shown)
VH: QVQLVQSGAEVKKPGASVKVSCKASGYTFTSFGISWVRQAPGQGLEWIGEIYPRSGNTYYNENFKGRATMTADKSTSTAYMELRSLRSDDTAVYYCARSSGYYGSTPFPYWGQGTLVTVSS
VL: DIQMTQSPSSLSASVGDRVTITCRASQDISNYLNWYQQKPGKAVKLLIYYTSRLHSGVPSRFSGSGSGTDYTFTISSLQPEDIATYYCQQGNTLPWTFGGGTKVEIK
modifications: Variable heavy chain region; Light chain variable region
B1 was tested, and the “effect on NRP2-KDR dimerization (in words)” value (NRP2/KDR(VEGFR2)) was “increased the ligand induced dimerization signal”.

B2: aNRP2-10v10: humanized, affinity matured anti-NRP2 antibody, target domain b1, VEGF-C blocking; VH SEQ ID NO: 49, VL SEQ ID NO: 50 (antibody, V domains shown)
VH: EVQLVQSGAEVKKPGATVKISCKVSGFNIKDYYVHWVQQAPGKGLEWMGRIDVEDDETKYAPKFQGRVTITADTSTDTAYMELSSLRSEDTAVYYCATPIYGAREAWFAYWGQGTLVTVSS
VL: DIQMTQSPSSLSASVGDRVTITCTASSSVSSSYLHWYQQKPGKAPKLLIYRTSNLASGVPSRFSGSGSGTDFTLTISSLQPEDFATYYCHQYYRSPPTFGGGTKVEIK
modifications: Variable heavy chain region; Light chain variable region
With B2 the “neo-lymphangiogenesis, % Lyve-1+ area of cornea” value [1] was “clear trend towards reduced sprouting of lymphatic vessels”, the “colony formation, soft agar, antibody treatment alone (BT549)” value (BT549; aNRP2-10v10 treatment alone) was “no obvious effect” and the “colony formation by BT549 cells, soft agar” value (BT549; antibody 100 nM in combination with Cisplatin or 5-FU at certain doses, compared to hIgG4 control) was “significantly more pronounced”.

Reference: US12410253B2, “Compositions comprising anti-NRP2 antibodies” (aTyr Pharma, Inc., priority 2019, dated 2025)
